Usually EC50 stands for the midpoint of the concentration-response curve.

The results in this text go back to patent publication US20250002610A1 (Genmab, published 2025).

The target in the experiment is T1, cynomolgus monkey FAPα on Expi293F cells (cynomolgus monkey (Macaca fascicularis), UniProt Q12884 1-760 (human entry)).
T1 sequence: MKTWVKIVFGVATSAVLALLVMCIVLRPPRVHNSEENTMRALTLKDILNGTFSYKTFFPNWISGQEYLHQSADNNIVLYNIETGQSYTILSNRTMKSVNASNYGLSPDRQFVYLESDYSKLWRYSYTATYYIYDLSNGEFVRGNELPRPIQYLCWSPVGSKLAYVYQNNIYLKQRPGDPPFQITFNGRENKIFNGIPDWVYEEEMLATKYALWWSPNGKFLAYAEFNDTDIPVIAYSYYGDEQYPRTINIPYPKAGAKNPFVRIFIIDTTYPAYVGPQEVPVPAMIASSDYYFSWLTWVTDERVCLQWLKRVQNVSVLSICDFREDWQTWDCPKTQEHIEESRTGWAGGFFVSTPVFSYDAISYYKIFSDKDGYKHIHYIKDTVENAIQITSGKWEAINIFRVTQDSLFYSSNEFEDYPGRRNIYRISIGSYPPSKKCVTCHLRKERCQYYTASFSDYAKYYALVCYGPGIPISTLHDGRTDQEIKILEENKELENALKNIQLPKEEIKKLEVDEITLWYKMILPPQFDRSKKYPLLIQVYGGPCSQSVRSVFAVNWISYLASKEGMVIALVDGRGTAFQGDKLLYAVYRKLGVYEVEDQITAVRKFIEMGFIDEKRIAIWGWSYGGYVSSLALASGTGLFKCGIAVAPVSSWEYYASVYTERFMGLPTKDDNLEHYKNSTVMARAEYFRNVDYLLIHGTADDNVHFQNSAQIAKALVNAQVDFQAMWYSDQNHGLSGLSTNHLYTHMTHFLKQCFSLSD
As to the kind of experiment: flow cytometry, Expi293F cells expressing cynomolgus monkey FAPα, n = 3. How it is done:
Binding of BisG1-FAPα-FERL/DR4-FERR, BisG1-FAPα-FEAL/b12-FEAR and IgG1-FAPα-FERL to FAPα of species commonly used for nonclinical toxicology studies was assessed by flow cytometry using Expi293F cells transiently expressing FAPα from different animal species. IgG1-b12 was included as negative control.
Expi293F cells expressing recombinant FAPα from various species (human, cynomolgus monkey, dog, pig, rat or mouse) were seeded (20,000 cells/well) in 96-Well round bottom plates (Greiner Bio-one, Cat #650101). Antibody dilutions were prepared using FACS buffer, consisting of PBS (Capricorn Scientific, Cat #PBS-10XA, diluted to 1×PBS in distilled water)+1% BSA (Roche, Cat #10735086001)+0.02% Sodium Azide (Bio-World, Cat #41920044-3). Plates were centrifuged, supernatant was removed, and cells were resuspended in 100 μL of antibody dilutions (concentration range 30-0.00017 μg/mL with three-fold serial dilutions using FACS buffer) of BisG1-FAPα-FERL/DR4-FERR, BisG1-FAPα-FEAL/b12-FEAR, IgG1-FAPα-FERL and IgG1-b12 and incubated for 30 min at 4° C. […] After 30 min incubation at 4° C., cells were washed with FACS buffer and resuspended in FACS buffer supplemented with TO-PRO-3 Iodide viability marker (Invitrogen, Cat #T3605, diluted 1:4,000). Antibody binding to viable cells (gMFI of PE on TO-PRO-3 negative cells) was analyzed by flow cytometry on a FACS Celesta and FACS_Diva software (first two experiments) or iQue® 3 and FlowJo software (last experiment). gMFI was determined and visualized using GraphPad Prism. Binding curves were analyzed using nonlinear regression analysis. The concentration (pg/mL) at which 50% of the maximal effect was observed (EC₅₀) was derived from the fitted curves.

B1: BisG1-FAPα-FERL/DR4-FERR (bispecific antibody, human IgG1, kappa, lambda)
heavy 1: EVQLLESGGGLVQPGGSPRLSCEASGFTFSSYALSWVRQAPGKGLEWVSAISGSGGGRYYADSVKGRFTISRDNSKNTLFLQMNSLRAEDTAVYYCAKEGYSSSGTYWDHWGQGTLVTVSSASTKGPSVFPLAPSSKSTSGGTAALGCLVKDYFPEPVTVSWNSGALTSGVHTFPAVLQSSGLYSLSSVVTVPSSSLGTQTYICNVNHKPSNTKVDKRVEPKSCDKTHTCPPCPAPEFERGPSVFLFPPKPKDTLMISRTPEVTCVVVDVSHEDPEVKFNWYVDGVEVHNAKTKPREEQYNSTYRVVSVLTVLHQDWLNGKEYKCKVSNKALPAPIEKTISKAKGQPREPQVYTLPPSREEMTKNQVSLTCLVKGFYPSDIAVEWESNGQPENNYKTTPPVLDSDGSFLLYSKLTVDKSRWQQGNVFSCSVMHEALHNHYTQKSLSLSPG
light 1: AIQMTQSPSSVSASVGDRVTITCRASQGVSSWLAWYQQKPGRAPKLLIYVASTLQSGVPSRFSGSGSGTDFTLTINSLQPEDFATYYCQQANSFPPTFGQGTRLEMKRTVAAPSVFIFPPSDEQLKSGTASVVCLLNNFYPREAKVQWKVDNALQSGNSQESVTEQDSKDSTYSLSSTLTLSKADYEKHKVYACEVTHQGLSSPVTKSFNRGEC
heavy 2: QVQLQESGPGLVKPSGTLSLTCAVSGGSISSYSWWSWIRQPPGKGLEWIGELYHSGSTNYNPSLKSRVTISVDKSKNQFSLKLRSVTAADTAVYYCVRGVATIDYWGQGTLVTVSSASTKGPSVFPLAPSSKSTSGGTAALGCLVKDYFPEPVTVSWNSGALTSGVHTFPAVLQSSGLYSLSSVVTVPSSSLGTQTYICNVNHKPSNTKVDKRVEPKSCDKTHTCPPCPAPEFERGPSVFLFPPKPKDTLMISRTPEVTCVVVDVSHEDPEVKFNWYVDGVEVHNAKTKPREEQYNSTYRVVSVLTVLHQDWLNGKEYKCKVSNKALPAPIEKTISKAKGQPREPQVYTLPPSREEMTKNQVSLTCLVKGFYPSDIAVEWESNGQPENNYKTTPPVLDSDGSFFLYSRLTVDKSRWQQGNVFSCSVMHEALHNHYTQKSLSLSPG
light 2: QSALTQPPSASGSPGQSVTISCTGTSSDVGGYNFVSWYQQDPGKAPKLLIYEVTKRPSGVPDRFSGSKSGNTASLTVSGLQAEDEADYYCSSYAGSNNVMFGGGTKLTVLGQPKAAPSVTLFPPSSEELQANKATLVCLISDFYPGAVTVAWKADSSPVKAGVETTTPSKQSNNKYAASSYLSLTPEQWKSHRSYSCQVTHEGSTVEKTVAPTECS
notes: Human IgG1 bispecific made by controlled Fab-arm exchange of IgG1-FAPα-FERL and IgG1-DR4-FERR; monovalent for FAPα and for DR4; also called GEN1057
In turn, B1 came in with an EC50 of 0.16 µg/mL.

B2: IgG1-FAPα-FERL (antibody)
heavy: EVQLLESGGGLVQPGGSPRLSCEASGFTFSSYALSWVRQAPGKGLEWVSAISGSGGGRYYADSVKGRFTISRDNSKNTLFLQMNSLRAEDTAVYYCAKEGYSSSGTYWDHWGQGTLVTVSSASTKGPSVFPLAPSSKSTSGGTAALGCLVKDYFPEPVTVSWNSGALTSGVHTFPAVLQSSGLYSLSSVVTVPSSSLGTQTYICNVNHKPSNTKVDKRVEPKSCDKTHTCPPCPAPEFERGPSVFLFPPKPKDTLMISRTPEVTCVVVDVSHEDPEVKFNWYVDGVEVHNAKTKPREEQYNSTYRVVSVLTVLHQDWLNGKEYKCKVSNKALPAPIEKTISKAKGQPREPQVYTLPPSREEMTKNQVSLTCLVKGFYPSDIAVEWESNGQPENNYKTTPPVLDSDGSFLLYSKLTVDKSRWQQGNVFSCSVMHEALHNHYTQKSLSLSPG
light: AIQMTQSPSSVSASVGDRVTITCRASQGVSSWLAWYQQKPGRAPKLLIYVASTLQSGVPSRFSGSGSGTDFTLTINSLQPEDFATYYCQQANSFPPTFGQGTRLEMKRTVAAPSVFIFPPSDEQLKSGTASVVCLLNNFYPREAKVQWKVDNALQSGNSQESVTEQDSKDSTYSLSSTLTLSKADYEKHKVYACEVTHQGLSSPVTKSFNRGEC
notes: Bivalent monoclonal IgG1 kappa
As for B2, the EC50 turned out to be 0.16 µg/mL.

B3: BisG1-FAPα-FEAL/b12-FEAR (bispecific antibody, human IgG1, kappa)
heavy 1: EVQLLESGGGLVQPGGSPRLSCEASGFTFSSYALSWVRQAPGKGLEWVSAISGSGGGRYYADSVKGRFTISRDNSKNTLFLQMNSLRAEDTAVYYCAKEGYSSSGTYWDHWGQGTLVTVSSASTKGPSVFPLAPSSKSTSGGTAALGCLVKDYFPEPVTVSWNSGALTSGVHTFPAVLQSSGLYSLSSVVTVPSSSLGTQTYICNVNHKPSNTKVDKRVEPKSCDKTHTCPPCPAPEFEGGPSVFLFPPKPKDTLMISRTPEVTCVVVAVSHEDPEVKFNWYVDGVEVHNAKTKPREEQYNSTYRVVSVLTVLHQDWLNGKEYKCKVSNKALPAPIEKTISKAKGQPREPQVYTLPPSREEMTKNQVSLTCLVKGFYPSDIAVEWESNGQPENNYKTTPPVLDSDGSFLLYSKLTVDKSRWQQGNVFSCSVMHEALHNHYTQKSLSLSPG
light 1: AIQMTQSPSSVSASVGDRVTITCRASQGVSSWLAWYQQKPGRAPKLLIYVASTLQSGVPSRFSGSGSGTDFTLTINSLQPEDFATYYCQQANSFPPTFGQGTRLEMKRTVAAPSVFIFPPSDEQLKSGTASVVCLLNNFYPREAKVQWKVDNALQSGNSQESVTEQDSKDSTYSLSSTLTLSKADYEKHKVYACEVTHQGLSSPVTKSFNRGEC
heavy 2: QVQLVQSGAEVKKPGASVKVSCQASGYRFSNFVIHWVRQAPGQRFEWMGWINPYNGNKEFSAKFQDRVTFTADTSANTAYMELRSLRSADTAVYYCARVGPYSWDDSPQDNYYMDVWGKGTTVIVSSASTKGPSVFPLAPSSKSTSGGTAALGCLVKDYFPEPVTVSWNSGALTSGVHTFPAVLQSSGLYSLSSVVTVPSSSLGTQTYICNVNHKPSNTKVDKRVEPKSCDKTHTCPPCPAPEFEGGPSVFLFPPKPKDTLMISRTPEVTCVVVAVSHEDPEVKFNWYVDGVEVHNAKTKPREEQYNSTYRVVSVLTVLHQDWLNGKEYKCKVSNKALPAPIEKTISKAKGQPREPQVYTLPPSREEMTKNQVSLTCLVKGFYPSDIAVEWESNGQPENNYKTTPPVLDSDGSFFLYSRLTVDKSRWQQGNVFSCSVMHEALHNHYTQKSLSLSPG
light 2: EIVLTQSPGTLSLSPGERATFSCRSSHSIRSRRVAWYQHKPGQAPRLVIHGVSNRASGISDRFSGSGSGTDFTLTITRVEPEDFALYYCQVYGASSYTFGQGTKLERKRTVAAPSVFIFPPSDEQLKSGTASVVCLLNNFYPREAKVQWKVDNALQSGNSQESVTEQDSKDSTYSLSSTLTLSKADYEKHKVYACEVTHQGLSSPVTKSFNRGEC
notes: Fab-arm exchange of IgG1-FAPα-FEAL and IgG1-b12-FEAR
As for B3, the EC50 stood at 0.35 µg/mL.
